Changes are numbered by the printed parent chain.
B1: AB-009816 (antibody, mouse IgG2a, V domains shown)
VH: QVQLQQWGAGLLKPSETLSLTCAVYGGSFSDYYWSWIRQPPGKGLEWIGEVNHRGSINYNNYNPSLKSRVTISVDASKNQFSLKLTSVTAADTAVYYCAKPLRPHCTNGVCYSGDAFDIWGQGTMVTVAS
VL: SYVLTQPPSVSVAPGQTARITCGGNNIGSKNVHWYQQKPGQAPVLVVYDDSDRPSGIPEQFSGSNSGNTATLTISRVEAGDEADYYCQVWDSSSDHLVFGGGTKLTVL
B2: AB-009815 (antibody, mouse IgG2a, V domains shown)
VH: B1 VH with A76T
VL: B1 VL
B3: AB-009812 (antibody, mouse IgG2a, V domains shown)
VH: B1 VH with R54S, A76P
VL: B1 VL
B4: AB-009813 (antibody, mouse IgG2a, V domains shown)
VH: B1 VH with R54A, A76P
VL: B1 VL
B5: AB-009814 (antibody, mouse IgG2a, V domains shown)
VH: QVQLQQWGAGLLKPSETLSLTCAVYGGSFSDYYWSWIRQPPGKGLEWIGEVNHRGSINYNPSLKSRVTISVDPSKNQFSLKLTSVTAADTAVYYCAKPLRPHCTNGVCYSGDAFDIWGQGTMVTVAS
VL: B1 VL
B6: AB-009808 (antibody, mouse IgG2a, V domains shown)
VH: B5 VH with V51I, R54S, I57T, L99F, A126S
VL: B1 VL
B7: AB-009807 (antibody, mouse IgG2a, V domains shown)
VH: B5 VH with S30N, R54S, I57T, N58S, P73T, T83S, L99F, A126S
VL: B1 VL with V44A
B8: AB-009805 (antibody, V domains shown)
VH: QVQLQQWGAGLLKPSETLSLTCAVYGGSLSDYHWSWIRQPPGKGLEWIGEINHSGSTNYNPSLKSRVTISVDTSKNQFSLKLSSVSAADTAVYYCAKPFRPHCTNGVCHSGDAFDIWGQGTMATVSS
VL: B1 VL
B9: AB-009812 (antibody, mouse IgG2a, V domains shown)
VH: B1 VH with R54S, A76P
VL: B1 VL
B10: AB-009813 (antibody, mouse IgG2a, V domains shown)
VH: B1 VH with R54A, A76P
VL: B1 VL
B11: AB-009815 (antibody, mouse IgG2a, V domains shown)
VH: B1 VH with A76T
VL: B1 VL
B12: AB-010363 (antibody, V domains shown)
VH: B1 VH with D31G, V51I, A76T, T86S
VL: B1 VL with Q60R, L97V
notes: Tested in mIgG2a format
B13: AB-010361 (antibody, mouse IgG2a, V domains shown)
VH: B1 VH with D31G, V51I, A76T, T86S
VL: B1 VL with L97V
notes: Tested with mouse IgG2a constant regions (mIgG2a format)
B14: AB-008873 (mouse IgG2a format) (antibody, V domains shown)
VH: B1 VH with A76P
VL: SYVLTQPPSVSVAPGQTARITCGGNNIGSKNVHWYQQKPGQAPVLVVYDDSDRPSGIPEQFSGSNSGNTATLTISRVEAGDEADYYCQVWDSSSDHLVFGGGTKLTVLG

What follows are binders tested against T1, human EphA2 (ephrin receptor A2), on cells (human, UniProt P29317 24-976) (assay: flow cytometry on A549 cells).
T1 construct: Used for HEK293 transfectants, A549 and other human tumor cell lines
T1 sequence (P29317 24-976 limits assumed): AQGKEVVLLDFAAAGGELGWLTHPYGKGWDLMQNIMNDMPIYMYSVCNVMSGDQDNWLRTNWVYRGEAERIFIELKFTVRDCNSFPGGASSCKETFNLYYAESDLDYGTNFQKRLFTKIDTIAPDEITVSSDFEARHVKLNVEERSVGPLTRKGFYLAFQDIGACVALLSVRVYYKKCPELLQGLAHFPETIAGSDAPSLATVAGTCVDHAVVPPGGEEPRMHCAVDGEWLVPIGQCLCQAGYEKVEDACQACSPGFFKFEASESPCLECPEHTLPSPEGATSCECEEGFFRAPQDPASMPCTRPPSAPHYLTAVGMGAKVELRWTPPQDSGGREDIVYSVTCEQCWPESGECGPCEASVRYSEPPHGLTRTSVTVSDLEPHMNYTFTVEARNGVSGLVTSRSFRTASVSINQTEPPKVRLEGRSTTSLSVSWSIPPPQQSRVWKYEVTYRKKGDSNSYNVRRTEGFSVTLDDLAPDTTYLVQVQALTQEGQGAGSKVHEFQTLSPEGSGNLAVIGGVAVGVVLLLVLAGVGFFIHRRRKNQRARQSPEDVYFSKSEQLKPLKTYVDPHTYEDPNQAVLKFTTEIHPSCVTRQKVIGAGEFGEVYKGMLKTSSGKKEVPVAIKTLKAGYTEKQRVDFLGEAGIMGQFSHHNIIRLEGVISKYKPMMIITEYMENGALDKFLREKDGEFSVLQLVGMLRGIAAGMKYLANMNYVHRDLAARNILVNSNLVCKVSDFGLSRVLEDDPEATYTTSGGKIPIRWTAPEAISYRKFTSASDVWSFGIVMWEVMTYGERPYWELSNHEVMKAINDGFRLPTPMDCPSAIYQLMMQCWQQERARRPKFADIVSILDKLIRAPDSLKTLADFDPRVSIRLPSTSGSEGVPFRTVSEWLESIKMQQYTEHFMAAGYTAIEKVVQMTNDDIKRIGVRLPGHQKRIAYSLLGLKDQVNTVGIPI
Protocol: (§1) Surface binding of the antibodies to in vitro grown cell lines was assessed by flow cytometry. Tumor cells were detached from their culture plate using Versene and counted. Cells were staining in BSA-containing buffer with primary antibody for 30 minutes at 4° C. with shaking. Following, cells were washed and stained with secondary PE-labeled antibody for 30 minutes at 4° C. with shaking. Before analysis on an Intellicyt iQue3 scanner, cells were counterstained with DAPI. MedFI values from live, single cells was expressed as fold over isotype control.

| Binder | Delta (flow) | EC50 [nM] |
| --- | --- | --- |
| B1 | 670000 | 5.5 |
| B2 | 745000 | 5.5 |
| B3 | 568000 | 9.6 |
| B4 | 578000 | 6.8 |
| B5 | 407000 | 11.5 |

These binders were tested against T1, human EphA2 (ephrin receptor A2), on … (assay: flow cytometry binding on A549 cells).
Protocol: as §1

| Binder | Flow Delta activity (MedFI) |
| --- | --- |
| B6 | 29500 |
| B7 | 12700 |
| B8 | 75100 |

Each binder was assayed against T2, Human EphA2 (ephrin receptor A2) (human, UniProt P29317 24-976) (assay: IHC/IF score on frozen human tumor tissue, ANC).
T2 construct: Endogenous protein in frozen human tumor tissue and tumor adjacent tissue, not a recombinant construct
T2 sequence (P29317 24-976 limits assumed): as above

| Binder | IHC score |
| --- | --- |
| B9 | 2 |
| B10 | 2 |
| B11 | 2 |

The binders below were run against T2, Human EphA2 (ephrin receptor A2) (assay: IHC/IF score on frozen human tumor tissue, CRC).

| Binder | IHC score |
| --- | --- |
| B9 | 1 |
| B10 | 1 |
| B11 | 1 |

Each binder was assayed against T2, Human EphA2 (ephrin receptor A2) (assay: IHC/IF score on frozen human tumor tissue, ESC).

| Binder | IHC score |
| --- | --- |
| B9 | 2 |
| B10 | 2 |
| B11 | 2 |

These binders were tested against T2, Human EphA2 (ephrin receptor A2) (assay: IHC/IF score on frozen human tumor tissue, GAC).

| Binder | IHC score |
| --- | --- |
| B9 | 2 |
| B10 | 2 |
| B11 | 2 |

These binders were tested against T2, Human EphA2 (ephrin receptor A2) (assay: IHC/IF score on frozen human tumor tissue, HNC).

| Binder | IHC score |
| --- | --- |
| B9 | 2 |
| B10 | 2 |
| B11 | 2 |

Each binder was assayed against T2, Human EphA2 (ephrin receptor A2) (assay: IHC/IF score on frozen human tumor tissue, OVA).

| Binder | IHC score |
| --- | --- |
| B9 | 2 |
| B10 | 2 |
| B11 | 2 |

What follows are binders tested against T2, Human EphA2 (ephrin receptor A2) (assay: IHC/IF score on frozen human tumor tissue, STS).

| Binder | IHC score |
| --- | --- |
| B9 | 2 |
| B10 | 2 |
| B11 | 2 |

What follows are binders tested against T2, Human EphA2 (ephrin receptor A2) (assay: IHC/IF score on frozen human tumor tissue, URO).

| Binder | IHC score |
| --- | --- |
| B9 | 1 |
| B10 | 1 |
| B11 | 1 |

What follows are binders tested against T2, Human EphA2 (ephrin receptor A2) (assay: IHC/IF score on frozen human tumor tissue, MELA).

| Binder | IHC score |
| --- | --- |
| B9 | 2 |
| B10 | 2 |
| B11 | 2 |

Each binder was assayed against T2, Human EphA2 (ephrin receptor A2) (assay: IHC/IF score on frozen human tumor tissue, PANC).

| Binder | IHC score |
| --- | --- |
| B9 | 1 |
| B10 | 1 |
| B11 | 1 |

The binders below were run against T2, Human EphA2 (ephrin receptor A2) (assay: IHC/IF score on frozen human tumor tissue, PROC).

| Binder | IHC score |
| --- | --- |
| B9 | 1 |
| B10 | 1 |
| B11 | 1 |

Each binder was assayed against T2, Human EphA2 (ephrin receptor A2) (assay: IHC/IF score on frozen human tumor tissue, TNBC).

| Binder | IHC score |
| --- | --- |
| B9 | 1 |
| B10 | 1 |
| B11 | 1 |

These binders were tested against T2, Human EphA2 (ephrin receptor A2) (assay: IHC/IF score on frozen human tumor tissue, ER+ BRC).

| Binder | IHC score |
| --- | --- |
| B9 | 1 |
| B10 | 1 |
| B11 | 1 |

Each binder was assayed against T2, Human EphA2 (ephrin receptor A2) (assay: IHC/IF score on frozen human tumor tissue, NSCLC-SQ).

| Binder | IHC score |
| --- | --- |
| B9 | 1 |
| B10 | 1 |
| B11 | 1 |

These binders were tested against T2, Human EphA2 (ephrin receptor A2) (assay: IHC/IF score on frozen human tumor tissue, Her2+ BRC).

| Binder | IHC score |
| --- | --- |
| B9 | 2 |
| B10 | 1 |
| B11 | 2 |

The binders below were run against T2, Human EphA2 (ephrin receptor A2) (assay: IHC/IF score on frozen human tumor tissue, NSCLC-Adeno).

| Binder | IHC score |
| --- | --- |
| B9 | 2 |
| B10 | 2 |
| B11 | 2 |

These binders were tested against T2, Human EphA2 (ephrin receptor A2) (assay: IHC/IF score on frozen human tumor tissue, RCC-papillary).

| Binder | IHC score |
| --- | --- |
| B9 | 1 |
| B10 | 1 |
| B11 | 1 |

These binders were tested against T2, Human EphA2 (ephrin receptor A2) (assay: IHC/IF score on frozen human tumor tissue, RCC-clear cell).

| Binder | IHC score |
| --- | --- |
| B9 | 1 |
| B10 | 1 |
| B11 | 1 |

These binders were tested against T2, Human EphA2 (ephrin receptor A2) (assay: IHC/IF score on frozen human tumor tissue, UCEC-papillary).

| Binder | IHC score |
| --- | --- |
| B9 | 2 |
| B10 | 2 |
| B11 | 2 |

These binders were tested against T2, Human EphA2 (ephrin receptor A2) (assay: IHC/IF score on frozen human tumor tissue, UCEC-clear cell).

| Binder | IHC score |
| --- | --- |
| B9 | 1 |
| B10 | 2 |
| B11 | 2 |

What follows are binders tested against T2, Human EphA2 (ephrin receptor A2) (assay: IHC/IF score on frozen human tumor tissue, UCEC-endometriod).

| Binder | IHC score |
| --- | --- |
| B9 | 1 |
| B10 | 1 |
| B11 | 1 |

What follows are binders tested against T3, C-terminally His-tagged hEphA2-FN2 (Thr437-Asn534+His tag) (human, UniProt P29317 437-534) (assay: SPR Biacore T200, 25 C, mIgG2a captured by anti-mouse Fc, FN2-His as analyte, steady-state fit, monovalent).
T3 construct: SPR analyte; also called FN2 domain of hEphA2
T3 sequence (P29317 437-534 limits assumed): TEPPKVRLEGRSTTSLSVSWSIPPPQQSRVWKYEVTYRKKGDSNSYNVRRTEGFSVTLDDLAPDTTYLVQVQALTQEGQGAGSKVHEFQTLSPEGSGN
Protocol: Binding of antibodies to the FN2 domain of hEphA2 was measured using the Biacore® T200 SPR system at 25° C. using HBS-EP+ buffer (0.01 M HEPES pH 7.4, 0.15 M NaCl, 3 mM EDTA, 0.005% v/v Surfactant P20). Antibodies in mIgG2a format were captured at levels between 475-715 RU via an anti-mouse Fc antibody immobilized to a CM5 chip. Binding was assessed using a titration of C-terminally His-tagged hEphA2-FN2 (Thr437-Asn534+His tag) associated for 30 s or 75 s at 30 uL/min. Data was double-reference subtracted using both a surface without captured antibody and from injections of HBS-EP+ buffer. The equilibrium response was measured at 4 seconds before the end of association with a window of 5 seconds and fit using the Biacore T200 Evaluation Software 3.1 with the Steady State Affinity Model.

| Binder | Kd [nM] |
| --- | --- |
| B12 | 1310 |
| B13 | 1110 |
| B14 | 2260 |
